Measured values from US20200392227A1 (LYVGEN BIOPHARMA, published 2020).
Where two headings read alike, the source gives them in different places. Each block holds one binder with its values, some of them ahead of it.

Key:
Assay in all cases: BLI
[1] = target: T1, human FcRI protein (MednaBio, E1031) (human, UniProt P12314 16-288, limits assumed)
T1 construct: Bought; loaded on anti-penta-HIS biosensors; also called FcγRI

[2] = target: T2, human FcRIIA protein (MednaBio, E1033) (human, UniProt P12318 34-218, limits assumed)
T2 construct: Bought; also called FcγRIIA
T2 sequence (looked up): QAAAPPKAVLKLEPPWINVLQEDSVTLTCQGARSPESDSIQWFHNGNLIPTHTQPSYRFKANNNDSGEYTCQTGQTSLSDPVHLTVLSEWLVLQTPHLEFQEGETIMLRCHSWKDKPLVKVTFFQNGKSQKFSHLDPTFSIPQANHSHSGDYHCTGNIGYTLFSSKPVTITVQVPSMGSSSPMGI

[3] = target: T3, human FcRIIB/C protein (MednaBio, E1034) (human, UniProt P31994 43-217, limits assumed)
T3 construct: Bought as FcRIIB/C; also called FcγRIIB; CD32B
T3 sequence (looked up): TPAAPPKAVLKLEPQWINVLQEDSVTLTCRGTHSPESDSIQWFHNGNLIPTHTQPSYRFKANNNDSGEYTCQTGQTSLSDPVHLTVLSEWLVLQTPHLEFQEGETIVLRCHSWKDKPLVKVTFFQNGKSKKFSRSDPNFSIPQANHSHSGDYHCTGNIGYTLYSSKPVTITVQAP

[4] = target: T4, human FcRIIIA-V158 protein (MednaBio, E1035) (human, UniProt P08637 17-208)
T4 construct: Bought; also called FcγRIIIA(V); FcgRIIIA(V)
T4 sequence (P08637 17-208 F176V): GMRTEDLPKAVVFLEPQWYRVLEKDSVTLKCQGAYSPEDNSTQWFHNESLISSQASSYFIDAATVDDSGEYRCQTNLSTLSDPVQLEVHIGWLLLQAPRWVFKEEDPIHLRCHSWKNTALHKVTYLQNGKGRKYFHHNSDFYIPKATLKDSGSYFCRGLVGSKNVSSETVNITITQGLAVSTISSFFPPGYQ

[5] = target: T5, human FcRn protein (MednaBio, E1032) (human, UniProt P55899 24-297; P61769 21-119)
T5 construct: Bought; assays at pH 6

[6] = target: T3, human FcRIIB/C protein (MednaBio, E1034); remark: listed apart in the source
In short: (§1)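 Binding was measured by biolayer interferometry on an Octet Red96 System, with commercial human Fc receptor proteins loaded at 20 μg/mL onto anti-penta-HIS biosensors. Sensors were dipped into an 8-point 1:3 dilution series of test IgG starting at 300 nM in PBS with 0.1% BSA and 0.02% Tween-20. Fcγ receptor assays ran at pH 7.2 and FcRn assays at pH 6. Kd, kon and koff came from global fitting to a 1:1 binding model.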

[7] = target: T1, human FcRI protein (MednaBio, E1031); remark: listed apart in the source
In short: as §1

[8] = target: T2, human FcRIIA protein (MednaBio, E1033); remark: listed apart in the source
In short: as §1

[9] = target: T3, human FcRIIB/C protein (MednaBio, E1034); remark: listed apart in the source
In short: as §1

[10] = target: T4, human FcRIIIA-V158 protein (MednaBio, …); remark: listed apart in the source
In short: as §1

[11] = target: T5, human FcRn protein (MednaBio, E1032); remark: listed apart in the source
In short: as §1

[12] = target: T1, human FcRI protein (MednaBio, E1031); remark: listed apart in the source
In short: as §1

[13] = target: T2, human FcRIIA protein (MednaBio, E1033); remark: listed apart in the source
In short: as §1

[14] = target: T3, human FcRIIB/C protein (MednaBio, E1034); remark: listed apart in the source
In short: as §1

[15] = target: T4, human FcRIIIA-V158 protein (MednaBio, …); remark: listed apart in the source
In short: as §1

[16] = target: T5, human FcRn protein (MednaBio, E1032); remark: listed apart in the source
In short: as §1

T1 sequence (P12314 16-288 limits assumed): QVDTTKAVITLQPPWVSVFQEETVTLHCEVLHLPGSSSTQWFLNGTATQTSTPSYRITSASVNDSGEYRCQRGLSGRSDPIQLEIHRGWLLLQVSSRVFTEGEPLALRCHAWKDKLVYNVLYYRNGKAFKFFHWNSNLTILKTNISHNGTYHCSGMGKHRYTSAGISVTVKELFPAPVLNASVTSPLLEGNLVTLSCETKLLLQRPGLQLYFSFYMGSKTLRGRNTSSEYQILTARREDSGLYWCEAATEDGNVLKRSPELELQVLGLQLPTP

Kd [1]: 5.6 nM
koff [1]: 0.0012 s⁻¹
kon [1]: 220000 M⁻¹ s⁻¹
Kd [2]: 56 nM
koff [2]: 0.032 s⁻¹
kon [2]: 570000 M⁻¹ s⁻¹
Kd [3]: 130 nM
koff [3]: 0.016 s⁻¹
kon [3]: 120000 M⁻¹ s⁻¹
Kd [4]: 60 nM
koff [4]: 0.027 s⁻¹
kon [4]: 450000 M⁻¹ s⁻¹
Kd [5]: 16 nM
koff [5]: 0.008 s⁻¹
kon [5]: 480000 M⁻¹ s⁻¹
Kd [6]: 130 nM
koff [6]: 0.016 s⁻¹
kon [6]: 120000 M⁻¹ s⁻¹
Kd [7]: 5.6 nM
koff [7]: 0.0012 s⁻¹
kon [7]: 220000 M⁻¹ s⁻¹
Kd [8]: 56 nM
koff [8]: 0.032 s⁻¹
kon [8]: 570000 M⁻¹ s⁻¹
Kd [9]: 130 nM
koff [9]: 0.016 s⁻¹
kon [9]: 120000 M⁻¹ s⁻¹
Kd [10]: 60 nM
koff [10]: 0.027 s⁻¹
kon [10]: 450000 M⁻¹ s⁻¹
Kd [11]: 16 nM
koff [11]: 0.008 s⁻¹
kon [11]: 480000 M⁻¹ s⁻¹
Kd [12]: 5.6 nM
koff [12]: 0.0012 s⁻¹
kon [12]: 220000 M⁻¹ s⁻¹
Kd [13]: 56 nM
koff [13]: 0.032 s⁻¹
kon [13]: 570000 M⁻¹ s⁻¹
Kd [14]: 130 nM
koff [14]: 0.016 s⁻¹
kon [14]: 120000 M⁻¹ s⁻¹
Kd [15]: 60 nM
koff [15]: 0.027 s⁻¹
kon [15]: 450000 M⁻¹ s⁻¹
Kd [16]: 16 nM
koff [16]: 0.008 s⁻¹
kon [16]: 480000 M⁻¹ s⁻¹
B1: wild-type human IgG1 control (antibody)
heavy: not shown
light: SYELTQPPSVSVSPGQTASITCSGDNIGDQYAHWYQQKPGQSPVLVIYQDKNRPSGIPERFSGSNSGNTATLTISGTQAMDEADYYCATYTGFGSLAVFGGGTKLTVLGQPKAAPSVTLFPPSSEELQANKATLVCLISDFYPGAVTVAWKADSSPVKAGVETTTPSKQSNNKYAASSYLSLTPEQWKSHRSYSCQVTHEGSTVEKTVAPTECS
notes: Control IgG

Kd [1]: 4.8 nM
koff [1]: 0.0017 s⁻¹
kon [1]: 360000 M⁻¹ s⁻¹
Kd [2]: 400 nM
koff [2]: 0.055 s⁻¹
kon [2]: 140000 M⁻¹ s⁻¹
Kd [3]: 400 nM
koff [3]: 0.05 s⁻¹
kon [3]: 140000 M⁻¹ s⁻¹
Kd [4]: 550 nM
koff [4]: 0.092 s⁻¹
kon [4]: 170000 M⁻¹ s⁻¹
Kd [5]: 18 nM
koff [5]: 0.012 s⁻¹
kon [5]: 640000 M⁻¹ s⁻¹
Kd [6]: 400 nM
koff [6]: 0.05 s⁻¹
kon [6]: 140000 M⁻¹ s⁻¹
Kd [7]: 4.8 nM
koff [7]: 0.0017 s⁻¹
kon [7]: 360000 M⁻¹ s⁻¹
Kd [8]: 400 nM
koff [8]: 0.055 s⁻¹
kon [8]: 140000 M⁻¹ s⁻¹
Kd [9]: 400 nM
koff [9]: 0.05 s⁻¹
kon [9]: 140000 M⁻¹ s⁻¹
Kd [10]: 550 nM
koff [10]: 0.092 s⁻¹
kon [10]: 170000 M⁻¹ s⁻¹
Kd [11]: 18 nM
koff [11]: 0.012 s⁻¹
kon [11]: 640000 M⁻¹ s⁻¹
Kd [12]: 4.8 nM
koff [12]: 0.0017 s⁻¹
kon [12]: 360000 M⁻¹ s⁻¹
Kd [13]: 400 nM
koff [13]: 0.055 s⁻¹
kon [13]: 140000 M⁻¹ s⁻¹
Kd [14]: 400 nM
koff [14]: 0.05 s⁻¹
kon [14]: 140000 M⁻¹ s⁻¹
Kd [15]: 550 nM
koff [15]: 0.092 s⁻¹
kon [15]: 170000 M⁻¹ s⁻¹
Kd [16]: 18 nM
koff [16]: 0.012 s⁻¹
kon [16]: 640000 M⁻¹ s⁻¹
B2: wild-type human IgG4 control (antibody)
heavy: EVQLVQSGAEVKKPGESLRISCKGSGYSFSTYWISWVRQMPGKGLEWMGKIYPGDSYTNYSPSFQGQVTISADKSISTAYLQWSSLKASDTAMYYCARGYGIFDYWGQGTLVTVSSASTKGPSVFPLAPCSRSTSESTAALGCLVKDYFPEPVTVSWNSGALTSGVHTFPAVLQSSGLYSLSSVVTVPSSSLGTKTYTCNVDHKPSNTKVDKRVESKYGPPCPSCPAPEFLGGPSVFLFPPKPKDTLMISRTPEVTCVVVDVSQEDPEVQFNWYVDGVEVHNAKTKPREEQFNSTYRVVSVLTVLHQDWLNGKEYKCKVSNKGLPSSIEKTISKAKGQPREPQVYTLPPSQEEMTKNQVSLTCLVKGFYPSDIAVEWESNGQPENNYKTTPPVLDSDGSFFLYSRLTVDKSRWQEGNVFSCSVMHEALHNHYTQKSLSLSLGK
light: SYELTQPPSVSVSPGQTASITCSGDNIGDQYAHWYQQKPGQSPVLVIYQDKNRPSGIPERFSGSNSGNTATLTISGTQAMDEADYYCATYTGFGSLAVFGGGTKLTVLGQPKAAPSVTLFPPSSEELQANKATLVCLISDFYPGAVTVAWKADSSPVKAGVETTTPSKQSNNKYAASSYLSLTPEQWKSHRSYSCQVTHEGSTVEKTVAPTECS
notes: Control IgG
